T1: amphyphisin SH3 (AMPH_HUMAN), P49418
T1 chain: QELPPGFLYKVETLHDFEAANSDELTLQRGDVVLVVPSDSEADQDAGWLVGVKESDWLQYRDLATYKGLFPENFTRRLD

B1: O60486 5-18 (peptide)
chain: RRKAPPRPPRPAAP
B2: Q96M62 296-309 (peptide)
chain: RRLALRRPEILVQP
B3: Q9NWI3 259-272 (peptide)
chain: RRPALHRPIKVNLL
B4: Q9H3F6 298-311 (peptide)
chain: RRIHIKRPDDRAHL
B5: Q9NRK9 487-500 (peptide)
chain: RSWWPQRPGRWLSR
B6: P53814 641-654 (peptide)
chain: AATQPLRPPRGTAA
B7: Q9H5Q5 226-240 (peptide)
chain: RRNVPMKPPDEAKV
B8: Q9BV18 42-55 (peptide)
chain: RRSRLRRPAVRPTD
B9: Q8WW30 14-28 (peptide)
chain: RRDPPRRPPRNGYG
B10: O95996 1839-1852 (peptide)
chain: RSRSLHRPAKTSEL
B11: Q9GZW5 220-233 (peptide)
chain: RTPAPRRPLQRRRP
B12: Q92560 382-396 (peptide)
chain: RSRVPVRPPQQYSD
B13: Q9Y2N3 421-434 (peptide)
chain: RSQTPERPAKKIRE
B14: Q9BZW7 5-18 (peptide)
chain: RSKSPRRPSPTARG
B15: Q9P1Y6 400-413 (peptide)
chain: RTLGLRRPVHSSSI
B16: Q9NPP7 72-86 (peptide)
chain: RSSGPERPPHGLPL
B17: O95473 15-28 (peptide)
chain: AVQFLRRPKTITRV
B18: P31152 530-543 (peptide)
chain: RRQPPVRPGRVHLP
B19: Q9P0P1 47-60 (peptide)
chain: AVMALRRPGERQYR
B20: Q9NR61 553-566 (peptide)
chain: RQLRLRRPDDGSRE
B21: Q96EZ6 93-106 (peptide)
chain: RRLQPRRPGYPPRP
B22: Q9Y5R2 356-370 (peptide)
chain: RQPRPPRPPLGDRP
B23: Q9H0S3 22-35 (peptide)
chain: RTPTPDRPPRSAWG
B24: Q15532 247-261 (peptide)
chain: RQIPPYRPPQQGPP
B25: Q9HDB5 8-21 (peptide)
chain: RRSPPRRPAWTLGI
B26: Q9Y6X4 343-356 (peptide)
chain: RSGNLKRPKIGKRF
B27: Q9NYZ2 96-109 (peptide)
chain: RTEGFWRPLRGVNV
B28: Q9Y520 1420-1434 (peptide)
chain: RRQRPTRPPRQDKP
B29: O60449 754-767 (peptide)
chain: AVKVFHRPWRRGWH
B30: Q9BQA8 78-92 (peptide)
chain: RRQPPARPPGPSTD
B31: Q96Q34 14-27 (peptide)
chain: RRARPRRPREAPAP
B32: Q96JH1 1030-1044 (peptide)
chain: RRRSPPRPPSRPAR
B33: Q96CC9 51-64 (peptide)
chain: RTKRFKRPQFSPTG
B34: Q14839 1380-1393 (peptide)
chain: RSEAPRRPSRKGLR
B35: Q14739 82-96 (peptide)
chain: RSRSPGRPPKSARR
B36: Q9NU00 50-63 (peptide)
chain: AVPPPSRPQRLSSL
B37: O43161 2760-2773 (peptide)
chain: RQQTLPRPMKTLQR
B38: P46092 337-350 (peptide)
chain: RRGSPRRPRLSSSS

The target of one assay is T1, amphyphisin SH3 (AMPH_HUMAN), P49418. Description: SPOT array.
In turn, B1 registered a normalised SPOT signal, Boehringer light units (BLU); mean over the file's lines of this peptide of 1450.

The molecule B2 yielded a normalised SPOT signal, Boehringer light units (BLU); mean over the file's lines of this peptide of 9.3.

With B3, the normalised SPOT signal, Boehringer light units (BLU); mean over the file's lines of this peptide turned out to be 111.

B4 had a normalised SPOT signal, Boehringer light units (BLU); mean over the file's lines of this peptide of 20.8.

Molecule B5 showed a normalised SPOT signal, Boehringer light units (BLU); mean over the file's lines of this peptide of 3180.

Turning to B6, the normalised SPOT signal, Boehringer light units (BLU); mean over the file's lines of this peptide is 11900.

B7 yielded a normalised SPOT signal, Boehringer light units (BLU); mean over the file's lines of this peptide of 2290.

Take B8: the normalised SPOT signal, Boehringer light units (BLU); mean over the file's lines of this peptide amounted to 41.8.

Molecule B9 registered a normalised SPOT signal, Boehringer light units (BLU); mean over the file's lines of this peptide of 8150.

With B10, the normalised SPOT signal, Boehringer light units (BLU); mean over the file's lines of this peptide was 170.

For B11, the normalised SPOT signal, Boehringer light units (BLU); mean over the file's lines of this peptide came out at 789.

Turning to B12, the normalised SPOT signal, Boehringer light units (BLU); mean over the file's lines of this peptide was 133.

Consider B13, for which the normalised SPOT signal, Boehringer light units (BLU); mean over the file's lines of this peptide was found to be 283.

Regarding B14, the normalised SPOT signal, Boehringer light units (BLU); mean over the file's lines of this peptide came to 41.9.

Regarding B15, the normalised SPOT signal, Boehringer light units (BLU); mean over the file's lines of this peptide came to 20.6.

Molecule B16 showed a normalised SPOT signal, Boehringer light units (BLU); mean over the file's lines of this peptide of 39.9.

B17 displayed a normalised SPOT signal, Boehringer light units (BLU); mean over the file's lines of this peptide of 15.3.

B18 registered a normalised SPOT signal, Boehringer light units (BLU); mean over the file's lines of this peptide of 4120.

Turning to B19, the normalised SPOT signal, Boehringer light units (BLU); mean over the file's lines of this peptide is 38.9.

The molecule B20 displayed a normalised SPOT signal, Boehringer light units (BLU); mean over the file's lines of this peptide of 39.7.

Take B21: the normalised SPOT signal, Boehringer light units (BLU); mean over the file's lines of this peptide was determined as 58.2.

On to B22, for which the normalised SPOT signal, Boehringer light units (BLU); mean over the file's lines of this peptide is 1470.

Consider B23, for which the normalised SPOT signal, Boehringer light units (BLU); mean over the file's lines of this peptide was found to be 2030.

As to B24, the normalised SPOT signal, Boehringer light units (BLU); mean over the file's lines of this peptide worked out at 170.

In turn, B25 showed a normalised SPOT signal, Boehringer light units (BLU); mean over the file's lines of this peptide of 88.8.

As for B26, the normalised SPOT signal, Boehringer light units (BLU); mean over the file's lines of this peptide worked out at 13.4.

The molecule B27 came in with a normalised SPOT signal, Boehringer light units (BLU); mean over the file's lines of this peptide of 952.

B28 returned a normalised SPOT signal, Boehringer light units (BLU); mean over the file's lines of this peptide of 6770.

The molecule B29 returned a normalised SPOT signal, Boehringer light units (BLU); mean over the file's lines of this peptide of 787.

B30 yielded a normalised SPOT signal, Boehringer light units (BLU); mean over the file's lines of this peptide of 1490.

B31 came in with a normalised SPOT signal, Boehringer light units (BLU); mean over the file's lines of this peptide of 35.2.

B32 showed a normalised SPOT signal, Boehringer light units (BLU); mean over the file's lines of this peptide of 21500.

B33 registered a normalised SPOT signal, Boehringer light units (BLU); mean over the file's lines of this peptide of 33.7.

On to B34, for which the normalised SPOT signal, Boehringer light units (BLU); mean over the file's lines of this peptide worked out at 12500.

Regarding B35, the normalised SPOT signal, Boehringer light units (BLU); mean over the file's lines of this peptide turned out to be 154.

For the molecule B36, the normalised SPOT signal, Boehringer light units (BLU); mean over the file's lines of this peptide is 15600.

Regarding B37, the normalised SPOT signal, Boehringer light units (BLU); mean over the file's lines of this peptide was determined as 79.1.

As for B38, the normalised SPOT signal, Boehringer light units (BLU); mean over the file's lines of this peptide stood at 41.2.

The target of another assay is endophilin SH3 (SH3G2_HUMAN), Q99962. Description: SPOT array.
B1 gave a normalised SPOT signal, Boehringer light units (BLU); mean over the file's lines of this peptide of 9570.

As to B2, the normalised SPOT signal, Boehringer light units (BLU); mean over the file's lines of this peptide worked out at 31.7.

B3 came in with a normalised SPOT signal, Boehringer light units (BLU); mean over the file's lines of this peptide of 109.

In the case of B4, the normalised SPOT signal, Boehringer light units (BLU); mean over the file's lines of this peptide was 70.2.

In the case of B5, the normalised SPOT signal, Boehringer light units (BLU); mean over the file's lines of this peptide was found to be 558.

The molecule B6 returned a normalised SPOT signal, Boehringer light units (BLU); mean over the file's lines of this peptide of 1480.

B7 came in with a normalised SPOT signal, Boehringer light units (BLU); mean over the file's lines of this peptide of 147.

In turn, B8 yielded a normalised SPOT signal, Boehringer light units (BLU); mean over the file's lines of this peptide of 28.4.

In turn, B9 displayed a normalised SPOT signal, Boehringer light units (BLU); mean over the file's lines of this peptide of 5040.

B10: the normalised SPOT signal, Boehringer light units (BLU); mean over the file's lines of this peptide came out at 187.

B11 yielded a normalised SPOT signal, Boehringer light units (BLU); mean over the file's lines of this peptide of 12000.

Consider B12, for which the normalised SPOT signal, Boehringer light units (BLU); mean over the file's lines of this peptide turned out to be 831.

On to B13, for which the normalised SPOT signal, Boehringer light units (BLU); mean over the file's lines of this peptide stood at 587.

For B14, the normalised SPOT signal, Boehringer light units (BLU); mean over the file's lines of this peptide was determined as 121.

B15 returned a normalised SPOT signal, Boehringer light units (BLU); mean over the file's lines of this peptide of 49.2.

As to B16, the normalised SPOT signal, Boehringer light units (BLU); mean over the file's lines of this peptide came to 752.

Consider B17, for which the normalised SPOT signal, Boehringer light units (BLU); mean over the file's lines of this peptide is 117.

B18 had a normalised SPOT signal, Boehringer light units (BLU); mean over the file's lines of this peptide of 7420.

Molecule B19 registered a normalised SPOT signal, Boehringer light units (BLU); mean over the file's lines of this peptide of 206.

B20 displayed a normalised SPOT signal, Boehringer light units (BLU); mean over the file's lines of this peptide of 61.3.

In turn, B21 displayed a normalised SPOT signal, Boehringer light units (BLU); mean over the file's lines of this peptide of 325.

For B22, the normalised SPOT signal, Boehringer light units (BLU); mean over the file's lines of this peptide stood at 4010.

B23: the normalised SPOT signal, Boehringer light units (BLU); mean over the file's lines of this peptide turned out to be 395.

For B24, the normalised SPOT signal, Boehringer light units (BLU); mean over the file's lines of this peptide came out at 68.

The molecule B25 gave a normalised SPOT signal, Boehringer light units (BLU); mean over the file's lines of this peptide of 1580.

Molecule B26 displayed a normalised SPOT signal, Boehringer light units (BLU); mean over the file's lines of this peptide of 50.1.

B27 showed a normalised SPOT signal, Boehringer light units (BLU); mean over the file's lines of this peptide of 107.

B28: the normalised SPOT signal, Boehringer light units (BLU); mean over the file's lines of this peptide is 3120.

For the molecule B29, the normalised SPOT signal, Boehringer light units (BLU); mean over the file's lines of this peptide was 38.8.

B30 showed a normalised SPOT signal, Boehringer light units (BLU); mean over the file's lines of this peptide of 9600.

In the case of B31, the normalised SPOT signal, Boehringer light units (BLU); mean over the file's lines of this peptide was determined as 144.

B32 had a normalised SPOT signal, Boehringer light units (BLU); mean over the file's lines of this peptide of 9450.

Take B33: the normalised SPOT signal, Boehringer light units (BLU); mean over the file's lines of this peptide stood at 12.5.

In turn, B34 gave a normalised SPOT signal, Boehringer light units (BLU); mean over the file's lines of this peptide of 9710.

B35 registered a normalised SPOT signal, Boehringer light units (BLU); mean over the file's lines of this peptide of 3690.

As for B36, the normalised SPOT signal, Boehringer light units (BLU); mean over the file's lines of this peptide was 7470.

For the molecule B37, the normalised SPOT signal, Boehringer light units (BLU); mean over the file's lines of this peptide is 67.7.

B38 had a normalised SPOT signal, Boehringer light units (BLU); mean over the file's lines of this peptide of 11.2.

For the origin of these results see PMC314469, “Protein Interaction Networks by Proteome Peptide Scanning” (PLoS Biology, 2004).
